Laboratory results taken from the supplement of paper PMC7877785.
± gives the uncertainty stated by the source.

Assay: self-splicing fitness, log relative to wild type (ln ratio); higher = more splicing; Tetrahymena group I intron in knt gene, E. coli kanamycin selection, DiMSum; sequences stand for … in CUCUCU…GGAGGGAAAAGUUAUCAGGCAUGCACCUGGUAGCUAGUCUUUAAACCAAUAGAUUGCAUCGGUUUAAAAGGCAAGACCGUCAAAUUGCGGGAAAGGGGUCAACAGCCGUUCAGUACCAAGUCUCAGGGGAAACUUUGAGAUGGCCUUGCAAAGGGUAUGGUAAUAAGCUGACGGACAUGGUCCUAACCACGCAGCCAAGUCCUAAGUCAACAGAUCUUCUGUUGAUAUGGAUGCAGUUCACAGACUAAAUGUCGGUCGGGGAAGAUGUAUUCUUCUCAUAAGAUAUAGUCGGACCUCUCCUUAAUGGGAGCUAGCGGAUGAAGUGAUGCAACACUGGAGCCGCUGGGAACUAAUUUGUAUGCGAAAGUAUAUUGAUUAGUUUUGGAGUACUCGUGGUCG
Method in brief: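 DiMSum derived fitness as the error-weighted combination of fold changes across replicates, kanamycin versus no kanamycin, normalised to wild type. E. coli BL21(DE3) held the library, which randomised all eight P1ex-region intron nucleotides within the knt kanamycin-resistance gene on pET-22b(+). Six replicate transformations grew overnight at 37°C or 30°C on LB agar with or without 25 μg/mL kanamycin, also containing 100 μg/mL carbenicillin, 50 μM IPTG and 0.2% rhamnose, and pooled colonies were amplicon-sequenced on an Illumina HiSeq 2500.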

Sequence | self-splicing fitness (ln) (30 °C) | self-splicing fitness (ln) (37 °C)
AAAAAGCAAUAUUACGAGGA | -2.86 ± 0.16 | -2.21 ± 0.15
UUCGAGCAAUAUUACGAGGC | -2.45 ± 0.29 | -2.98 ± 0.3
GAGGAGCAAUAUUACGAUUU | -1.07 ± 0.1 | -0.084 ± 0.13
CUCCAGCAAUAUUACGCAGU | -3.59 ± 0.21 | -2.04 ± 0.23
AAUGAGCAAUAUUACGAUAU | -3.25 ± 0.25 | -0.861 ± 0.22
UGGGAGCAAUAUUACGGUCG | -1.47 ± 0.12 | -0.961 ± 0.2
GCAGAGCAAUAUUACGGACA |  | -0.844 ± 0.3
UUAGAGCAAUAUUACGGUAU | -3.84 ± 0.28 | -1.36 ± 0.19
CCAGAGCAAUAUUACGCAUG | -2.64 ± 0.16 | -1.59 ± 0.16
GAACAGCAAUAUUACGUCCG | -1.5 ± 0.13 | -0.784 ± 0.17
CUCUAGCAAUAUUACGAAUG | -1.55 ± 0.091 | -1.1 ± 0.11
UAGAAGCAAUAUUACGGGGG |  | -2.25 ± 0.45
CGGGAGCAAUAUUACGCGGC | -2.4 ± 0.43 | -1.77 ± 0.3
AUUAAGCAAUAUUACGGUUC | -3.04 ± 0.35 | -0.609 ± 0.31
GGUAAGCAAUAUUACGCGUG | -2.42 ± 0.18 | -0.242 ± 0.15
GACAAGCAAUAUUACGCGAC | -1.52 ± 0.15 | -1.63 ± 0.19
UAACAGCAAUAUUACGCACG | -1.17 ± 0.058 | -0.421 ± 0.072
CGUAAGCAAUAUUACGAUUG | -0.745 ± 0.079 | -0.605 ± 0.11
GCAGAGCAAUAUUACGCCUG |  | -1.33 ± 0.47
CGUCAGCAAUAUUACGCACG | -2.16 ± 0.11 | -1.22 ± 0.12
GGUAAGCAAUAUUACGCUUG | -3.34 ± 0.38 | -1.7 ± 0.34
GCCUAGCAAUAUUACGUUUC | -2.03 ± 0.073 | -0.802 ± 0.079

Sequence | self-splicing fitness (ln) (30 °C) | self-splicing fitness (ln) (37 °C)
GCAAAGCAAUAUUACGUGUU | -1.88 ± 0.086 | -1.03 ± 0.11
ACCGAGCAAUAUUACGUCAA | -3.16 ± 0.19 | -2.36 ± 0.3
CUAUAGCAAUAUUACGACAA | -2.79 ± 0.5 | -2.64 ± 0.44
AUCUAGCAAUAUUACGCUUU | -2.3 ± 0.17 | -0.151 ± 0.12
GGUCAGCAAUAUUACGCAGC | -1.76 ± 0.14 | -0.838 ± 0.13
UUCAAGCAAUAUUACGAUUC | -2.57 ± 0.15 | -2.22 ± 0.19
GAUGAGCAAUAUUACGCACU | -2.71 ± 0.22 | -1.04 ± 0.2
AACUAGCAAUAUUACGGAAU | -2.42 ± 0.1 | -1.83 ± 0.14
CGCGAGCAAUAUUACGCCUU | -2.45 ± 0.43 | 
CCGAAGCAAUAUUACGGAAU | -3.74 ± 0.19 | -3 ± 0.24
GUAAAGCAAUAUUACGCAAA | -0.784 ± 0.13 | -0.594 ± 0.16
GGGUAGCAAUAUUACGUUUU | -1.31 ± 0.063 | -0.826 ± 0.1
UACGAGCAAUAUUACGGGUA | -1.64 ± 0.14 | -1.43 ± 0.14
CUUCAGCAAUAUUACGCAAC | -2.86 ± 0.21 | 
UCAUAGCAAUAUUACGCACA | -1.21 ± 0.13 | -0.159 ± 0.11
CAACAGCAAUAUUACGCGCG | -0.385 ± 0.059 | -0.492 ± 0.082
UGUCAGCAAUAUUACGAUUC | -1.84 ± 0.11 | -0.335 ± 0.13
GCAAAGCAAUAUUACGGCUU | -1.48 ± 0.11 | -0.763 ± 0.15
ACUCAGCAAUAUUACGAGGA | -1.67 ± 0.11 | -0.591 ± 0.095
CCGCAGCAAUAUUACGCGAU | -3.44 ± 0.14 | -3.44 ± 0.21
AAAUAGCAAUAUUACGCUUU | -2.63 ± 0.15 | -1.09 ± 0.12
AUAGAGCAAUAUUACGAAGG |  | -1.24 ± 0.39
